What all share (experiment): cryo-EM structure; endogenous holoenzymes co-purified from Expi 293F cells as a mixture of biotin-dependent carboxylases; HBS buffer (20 mM HEPES, pH 7.4, 150 mM NaCl); apo, or pre-incubated with 25 mM NaHCO3, 10 mM MgCl2 and 10 mM propionyl-CoA or acetyl-CoA, 10 mM ATP added before freezing
Data set [1] deals with the molecule itself.
In data set [2] the target is T1, human 3-methylcrotonyl-CoA carboxylase α subunit (human (endogenous in Expi 293F), UniProt Q96RQ3 42-725, biotin covalently linked to K681 (AMKM motif of the BCCP domain)).
T1 construct: 3-methylcrotonyl-CoA carboxylase α subunit (MCCα), human, endogenous; holds the BC, BT and BCCP domains; Purified as part of the endogenous α6β6 MCC holoenzyme, in a mixture with the other biotin-dependent carboxylases; also called MCCα; α subunit of MCC; source: endogenous, Expi 293F cells, purified (Strep-Tactin XT resin, size-exclusion chromatography)
T1 sequence (looked up): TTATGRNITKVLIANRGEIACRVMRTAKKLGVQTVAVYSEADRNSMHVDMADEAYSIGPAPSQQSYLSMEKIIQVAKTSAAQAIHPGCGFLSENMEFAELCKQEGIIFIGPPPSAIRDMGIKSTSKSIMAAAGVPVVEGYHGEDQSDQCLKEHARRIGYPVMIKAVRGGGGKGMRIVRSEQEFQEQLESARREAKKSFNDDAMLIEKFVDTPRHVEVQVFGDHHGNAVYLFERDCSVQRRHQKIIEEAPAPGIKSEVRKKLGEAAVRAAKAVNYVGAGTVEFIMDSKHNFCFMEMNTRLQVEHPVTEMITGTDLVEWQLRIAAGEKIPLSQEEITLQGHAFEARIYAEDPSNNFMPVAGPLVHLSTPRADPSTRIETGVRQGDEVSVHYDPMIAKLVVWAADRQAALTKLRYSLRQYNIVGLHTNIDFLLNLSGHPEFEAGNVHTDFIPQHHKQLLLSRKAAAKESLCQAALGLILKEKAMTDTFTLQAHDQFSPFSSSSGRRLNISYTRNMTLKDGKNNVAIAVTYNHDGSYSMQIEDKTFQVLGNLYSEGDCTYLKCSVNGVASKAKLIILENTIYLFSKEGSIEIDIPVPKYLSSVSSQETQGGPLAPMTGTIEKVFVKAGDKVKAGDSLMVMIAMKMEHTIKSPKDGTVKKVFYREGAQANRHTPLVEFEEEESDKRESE
The settings on record: both partners purified.

For data set [3], the target named is T2, human propionyl-CoA carboxylase α subunit (human (endogenous in Expi 293F), UniProt P05165 53-728, biotin covalently linked to K694 (AMKM motif of the BCCP domain)).
T2 construct: Propionyl-CoA carboxylase α subunit (PCCα), human, endogenous; holds the BC, BT and BCCP domains; Purified as part of the endogenous α6β6 PCC holoenzyme, in a mixture with the other biotin-dependent carboxylases; also called PCCα; α subunit of PCC; source: endogenous, Expi 293F cells, purified (Strep-Tactin XT resin, size-exclusion chromatography)
T2 sequence (looked up): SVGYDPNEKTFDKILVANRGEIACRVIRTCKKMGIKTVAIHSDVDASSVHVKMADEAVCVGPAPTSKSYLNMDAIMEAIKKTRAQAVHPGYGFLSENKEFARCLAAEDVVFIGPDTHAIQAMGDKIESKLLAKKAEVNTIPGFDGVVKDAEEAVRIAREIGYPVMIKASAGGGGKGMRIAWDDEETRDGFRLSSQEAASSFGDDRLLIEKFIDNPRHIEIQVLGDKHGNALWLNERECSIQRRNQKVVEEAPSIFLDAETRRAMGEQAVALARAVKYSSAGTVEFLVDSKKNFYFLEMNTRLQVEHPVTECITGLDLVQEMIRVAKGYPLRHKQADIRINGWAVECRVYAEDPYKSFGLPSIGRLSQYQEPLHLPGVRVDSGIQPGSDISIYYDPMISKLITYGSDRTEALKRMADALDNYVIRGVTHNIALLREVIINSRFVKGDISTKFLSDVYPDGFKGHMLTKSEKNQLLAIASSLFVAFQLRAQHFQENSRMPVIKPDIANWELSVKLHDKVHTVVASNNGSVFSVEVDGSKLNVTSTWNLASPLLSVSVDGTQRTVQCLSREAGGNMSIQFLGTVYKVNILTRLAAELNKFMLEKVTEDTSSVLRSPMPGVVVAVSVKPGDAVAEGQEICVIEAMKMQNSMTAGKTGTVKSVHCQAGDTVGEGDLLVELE
The following applies: both partners purified.

Data on two molecules can be found in publication doi:10.1101/2024.04.30.591959, “Structural insights into human propionyl-CoA carboxylase (PCC) and 3-methylcrotonyl-CoA carboxylase (MCC)” (bioRxiv, 2024).

One may read the stoichiometry N as the number of molecules, sites or subunits per partner or assembly.

B1: human 3-methylcrotonyl-CoA carboxylase β subunit (natural protein, human (endogenous in Expi 293F), UniProt Q9HCC0 23-563, looked up)
chain: YHGDSVASLGTQPDLGSALYQENYKQMKALVNQLHERVEHIKLGGGEKARALHISRGKLLPRERIDNLIDPGSPFLELSQFAGYQLYDNEEVPGGGIITGIGRVSGVECMIIANDATVKGGAYYPVTVKKQLRAQEIAMQNRLPCIYLVDSGGAYLPRQADVFPDRDHFGRTFYNQAIMSSKNIAQIAVVMGSCTAGGAYVPAMADENIIVRKQGTIFLAGPPLVKAATGEEVSAEDLGGADLHCRKSGVSDHWALDDHHALHLTRKVVRNLNYQKKLDVTIEPSEEPLFPADELYGIVGANLKRSFDVREVIARIVDGSRFTEFKAFYGDTLVTGFARIFGYPVGIVGNNGVLFSESAKKGTHFVQLCCQRNIPLLFLQNITGFMVGREYEAEGIAKDGAKMVAAVACAQVPKITLIIGGSYGAGNYGMCGRAYSPRFLYIWPNARISVMGGEQAANVLATITKDQRAREGKQFSSADEAALKEPIIKKFEEEGNPYYSSARVWDDGIIDPADTRLVLGLSFSAALNAPIEKTDFGIFRM
notes: 3-methylcrotonyl-CoA carboxylase β subunit (MCCβ), human, endogenous; CT domain (CT-N and CT-C subdomains); Co-purified with the biotinylated α subunit as the endogenous α6β6 MCC holoenzyme; also called MCCβ; β subunit of MCC; source: endogenous, Expi 293F cells, purified (Strep-Tactin XT resin, size-exclusion chromatography)
Take B1: the “stoichiometry N” value in data set [1] came out at 6. The binding result in data set [2] is recorded as “binds”.

B2: human propionyl-CoA carboxylase β subunit (natural protein, human (endogenous in Expi 293F), UniProt P05166 29-539, looked up)
chain: CSQATSVNERIENKRRTALLGGGQRRIDAQHKRGKLTARERISLLLDPGSFVESDMFVEHRCADFGMAADKNKFPGDSVVTGRGRINGRLVYVFSQDFTVFGGSLSGAHAQKICKIMDQAITVGAPVIGLNDSGGARIQEGVESLAGYADIFLRNVTASGVIPQISLIMGPCAGGAVYSPALTDFTFMVKDTSYLFITGPDVVKSVTNEDVTQEELGGAKTHTTMSGVAHRAFENDVDALCNLRDFFNYLPLSSQDPAPVRECHDPSDRLVPELDTIVPLESTKAYNMVDIIHSVVDEREFFEIMPNYAKNIIVGFARMNGRTVGIVGNQPKVASGCLDINSSVKGARFVRFCDAFNIPLITFVDVPGFLPGTAQEYGGIIRHGAKLLYAFAEATVPKVTVITRKAYGGAYDVMSSKHLCGDTNYAWPTAEIAVMGAKGAVEIIFKGHENVEAAQAEYIEKFANPFPAAVRGFVDDIIQPSSTRARICCDLDVLASKKVQRPWRKHANIPL
notes: Propionyl-CoA carboxylase β subunit (PCCβ), human, endogenous; CT domain (CT-N and CT-C subdomains); Co-purified with the biotinylated α subunit as the endogenous α6β6 PCC holoenzyme; also called PCCβ; β subunit of PCC; source: endogenous, Expi 293F cells, purified (Strep-Tactin XT resin, size-exclusion chromatography)
As for B2, the binding result in data set [3] is “binds”.
